The values below come from PMC5779224, “Autoinhibition of ankyrin-B/G membrane target bindings by intrinsically disordered segments from the tail regions” (eLife, 2017).

Holding throughout (conditions): both partners purified
For one test, the target named is T1, AnkB_MBD Asn595Ala (human, UniProt Q01484-2 28-827, Asn595Ala).
T1 construct: ankyrin-B (AnkB), human 220 kDa isoform, MBD 28-827 with N595A in a finger loop; numbers count on: human 220 kDa AnkB NM_020977.3; source: E. coli BL21 (DE3), purified (Ni2+-NTA, size exclusion)
T1 sequence (looked up): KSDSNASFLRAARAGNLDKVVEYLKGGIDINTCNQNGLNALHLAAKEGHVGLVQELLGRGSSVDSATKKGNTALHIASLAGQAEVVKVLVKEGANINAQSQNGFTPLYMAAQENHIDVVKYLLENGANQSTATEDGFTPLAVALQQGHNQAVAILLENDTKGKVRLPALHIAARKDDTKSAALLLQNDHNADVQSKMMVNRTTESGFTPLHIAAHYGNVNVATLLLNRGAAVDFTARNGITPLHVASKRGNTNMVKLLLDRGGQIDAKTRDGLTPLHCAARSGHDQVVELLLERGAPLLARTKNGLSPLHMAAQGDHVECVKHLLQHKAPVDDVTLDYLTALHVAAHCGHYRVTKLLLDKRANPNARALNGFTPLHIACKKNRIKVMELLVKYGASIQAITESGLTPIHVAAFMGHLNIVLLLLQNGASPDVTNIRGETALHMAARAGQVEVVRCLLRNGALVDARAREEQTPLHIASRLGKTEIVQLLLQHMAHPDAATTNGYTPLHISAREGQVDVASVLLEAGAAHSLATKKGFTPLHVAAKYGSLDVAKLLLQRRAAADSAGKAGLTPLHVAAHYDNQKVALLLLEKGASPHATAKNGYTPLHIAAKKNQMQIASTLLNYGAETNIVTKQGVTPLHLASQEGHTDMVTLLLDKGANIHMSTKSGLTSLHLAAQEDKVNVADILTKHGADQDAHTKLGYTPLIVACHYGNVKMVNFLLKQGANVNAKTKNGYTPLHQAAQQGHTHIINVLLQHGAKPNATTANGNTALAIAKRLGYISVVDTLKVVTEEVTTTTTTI
The test is described as follows: ITC; VP-ITC MicroCal, 25 °C; proteins in 50 mM Tris-HCl pH 7.8, 1 mM DTT, 1 mM EDTA with 100 mM or 500 mM NaCl as required; who was titrated is not told. (In general: Isothermal titration calorimetry measures the heat released or taken up as one component is titrated into another.)

Test [1] concerns the target T2, AnkB_MBD (AnkB ANK repeats only, aa 28–827) (human, UniProt Q01484-2 28-827).
T2 construct: ankyrin-B (AnkB), human 220 kDa isoform, residues 28-827: the 24 ANK repeats (MBD), no linker; numbers count on: human 220 kDa AnkB NM_020977.3; Poor quality in 100 mM NaCl buffer; also called AnkB 28–827; source: E. coli BL21 (DE3), purified (Ni2+-NTA, size exclusion)
T2 sequence (looked up): T1 sequence (looked up) with A568N
The description is as above.

Test [2] addresses T3, AnkB_R13-24 (C-terminal 12 ANK repeats of AnkB) (human, UniProt Q01484-2 430-827).
T3 construct: numbers count on: human 220 kDa AnkB NM_020977.3; also called AnkB C-terminal 12 repeats; source: E. coli BL21 (DE3), purified (Ni2+-NTA, size exclusion)
T3 sequence (looked up): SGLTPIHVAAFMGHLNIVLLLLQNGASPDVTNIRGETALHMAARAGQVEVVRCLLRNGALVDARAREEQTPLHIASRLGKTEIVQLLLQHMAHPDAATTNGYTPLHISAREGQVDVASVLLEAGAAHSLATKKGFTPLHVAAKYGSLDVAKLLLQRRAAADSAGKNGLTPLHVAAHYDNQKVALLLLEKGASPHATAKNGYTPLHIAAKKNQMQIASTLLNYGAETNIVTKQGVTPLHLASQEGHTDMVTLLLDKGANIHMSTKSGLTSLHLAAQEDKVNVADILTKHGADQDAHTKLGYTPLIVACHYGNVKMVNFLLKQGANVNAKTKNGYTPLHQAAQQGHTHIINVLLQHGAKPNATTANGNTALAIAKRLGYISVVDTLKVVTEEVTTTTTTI
The test can be described thus: crystal structure; one natural chain AnkB 430-873; the linker folds back on the repeats of the same chain; crystals grown at 16 °C.

Residue numbers refer to the chain shown, from its start.

B1: AnkB_AI-c (aa 828–852) (domain or fragment, human, UniProt Q01484-2 828-852, looked up)
chain: TEKHKLNVPETMTEVLDVSDEEGDD
notes: numbers count on: human 220 kDa AnkB NM_020977.3; source: E. coli BL21 (DE3), purified (Ni2+-NTA, size exclusion)
For the molecule B1, the binding result (with AnkB_MBD Asn595Ala; in test [1]) was “binds” in each case.

B2: AnkB 46-residue linker after the ANK repeats (aa 828–873, holds AI-c), as crystallised (domain or fragment, human, UniProt Q01484-2 828-873, looked up)
chain: TEKHKLNVPETMTEVLDVSDEEGDDTMTGDGGEYLRPEDLKELGDD
notes: Thr828 to Asp847 defined in the map; numbers count on: human 220 kDa AnkB NM_020977.3; Contiguous with m23 on one natural chain; also called folded back linker; source: E. coli BL21 (DE3), purified (Ni2+-NTA, size exclusion)
Turning to B2, the binding result in test [2] is given as “binds”.
